Where no end group is shown, it is not given here.
Legend:
[1] = Orientation of helices and acyl chains by polarized ATR infrared spectroscopy; assay type: physicochemical; settings: peptide-DMPC complexes
Description: (§1) Attenuated Total Reflection (ATR) infrared spectroscopy was used for the determination of the relative orientation of the apolipoprotein alpha-helical segments and of the phospholipid acyl chains as previously described for apo AI and apo AI-phospholipid complexes and for LDL (Vanloo et at., 1991). For these measurements, a 70 μL solution of 20 μg isolated complex in a 0.005M Tris-HCl buffer pH 8.4, was spread on a ATR Germanium crystal plate. Deuteration of the sample was performed by flushing N2, saturated with D2 O, in a sealed universal Perkin-Elmer sample holder, at room temperature for 3 hours, in order to avoid overlapping of the absorption bands for random and alpha-helical structures.
(§2) Spectra were recorded on a Perkin Elmer 1720X infrared spectrophotometer, using polarized incident light with a perpendicular (90°) and parallel (0°) orientation. A dichroic spectrum was obtained by substracting the spectrum recorded with polarized light at 0° from that at 90°. A positive deviation on the dichroic spectrum indicates a dipole preferentially oriented close to a normal to the plane, while a larger absorbance at 0° is indicative of a dipole oriented close to the Ge crystal plane. The angle between a normal to the Ge crystal and the dipole is obtained from the calculation of the dichroic ratio Ratr =A(90°)/A(0°), representing the ratio of the absorbances on the spectra recorded with polarized light at 90° and 0° . For each experiment, up to 15 scans were stored and averaged.
In order to determine the orientation of the alpha-helices with respect to the DMPC bilayer, ATR infrared spectra of DMPC and of the isolated peptide-DMPC complexes were recorded at two orthogonal linear polarizations of the incident light. […] This value is close to that measured for the apo AI-DMPC complex (Vanloo et al.,1991), and higher than that for pure DMPC. For the M1, M2, M3 and M4 peptide-DMPC complexes, the corresponding angles between the peptide and an axis perpendicular to the Ge plane are respectively 25°, 25°, 34° and 31°.

[2] = Composition and gel chromatography of the isolated phospholipid-protein complexes; assay type: physicochemical; settings: for Composition DPPC/Protein w/w: isolated complex with DPPC, maximum of elution peak
Description: Complexes were obtained by incubation of the peptides with dimyristoylphosphatidylcholine (DMPC, Sigma, St Louis, Mo.) vesicles at a DMPC/peptide, w/w ratio of 3/1 at 25° C. for 16 h. Complexes with dipalmitoylphosphatidylcholine (DPPC) were generated by the cholate dialysis procedure (Vanloo et al., 1991). All complexes were isolated by gel chromatography (FIG. 4) on a Superose PG column in a 0.01M Tris-HCl buffer, pH 8.0, 0.15M NaCl, 1 mM NaN3, 0.1 g/L EDTA. The column was first saturated with the phospholipid to avoid dissociation of the lipid-peptide complexes. The complexes were detected by continuous monitoring of the optical density at 280 nm and by measurement of the Trp emission of the fractions on a Jasco SP500 spectrofluorimeter. The composition and size of the complexes, were determined on the two fractions with maximal UV absorption in the elution peak of the complexes. The composition was determined by quantitation of the phospholipids using an enzymatic assay (Biomerieux, France), and of the peptide by an HPLC phenylalanine assay on a C18 reversed-phase column, after hydrolysis (Vanloo et al., 1991).

J774 murine macrophages = assay: Cellular cholesterol efflux from lipid-loaded macrophages; assay type: cell-based; settings: for Vmax (cholesterol efflux): phospholipid-peptide complexes, cholesterol-loaded J774 cells, 24 h; for efflux of free cholesterol into the medium: protein concentration of the complex in the medium 100 μg/ml, 24 h incubation
Description: J774 murine macrophages are grown in DMEM (Gibco) with addition of 10% fetal calf serum (FCS), in a 5% CO2 atmosphere. Cells are seeded in 35 mm dishes at a density of 2×10^6 /dish, grown for 18 h in 2ml DMEM-10% FCS and used as confluent monolayers. After 18 h, the cells are washed twice with DMEM and incubated with acetylated LDL at a concentration of 100 μg apo B/ml for 24 h in a medium consisting of DMEM and 10% lipoprotein deficient serum (LPDS). LPDS is prepared from fetal cell serum (Gibco) by eliminating all lipoproteins by ultracentrifugation. After loading with cholesteryl esters, cell monolayers are washed with DMEM.
The cholesteryl ester-laden cells are incubated in 2 ml DMEM supplemented with 1 g/l bovine serum albumin and containing the Sandoz 58-035 compound at a concentration of 1 μg/ml medium as inhibitor of the acyl-CoA:cholesterol acyl transferase enzyme (ACAT) in order to prevent the re-esterification of the cellular cholesterol (Brown et at., 1980). The cholesterol acceptors, i.e. the discoidal peptide-lecithin complexes were added to the medium at concentrations varying between 10 and 200 μg peptide/ml and cells were incubated for 24 h.
After incubation, cells are washed once with phosphate buffer pH 7.4, 0.15N NaGl (PBS) containing 2 g/l BSA and twice with PBS alone. Lipid extracts are prepared by addition to the cell pellet of 5 ml hexane/isopropylalcohol (3:2) (Phillips et at., 1987). Fifty μl of a cholesteryl heptadecanoate solution in chloroform at a concentration of 500 μg/ml are added as internal standard for the HPLC quantitation of cholesteryl esters. After vortex-mixing for 3 min and centrifugation at 3000 rpm for 15 rain, the organic phase supernatant is dried, the precipitate is dissolved in 1 ml chloroform and washed three times. The dry residue is finally dissolved in 50 μl of a mixture of chloroform:acetonitrile:isopropylalcohol (1:1:1), of which 20 μl are injected into the HPLC system.
The same extraction procedure is applied to 1 ml of the medium. For quantification of the unesterified cholesterol fraction, beta-sitosterol is used as internal standard according to methods known in the art.
After delipidation, cellular proteins were dissolved in 0.1M NaOH and the proteins were assayed either by the method of Lowry (Lowry et al., 1951) or with the bicinchoninic acid (BCA) reagent using a kit for protein assay manufactured by Pierce (Pierce Europe, oud-Beijerland, Holland). In both cases bovine serum albumin was used as a standard.

[3] = Percentage of alpha-helix structure by ATR infrared spectroscopy; assay type: physicochemical; settings: for percentage of alpha-helix structure, peptide, IR: free peptide; for percentage of alpha-helix structure, DMPC/peptide, IR: phospholipid-peptide (DMPC) complex
Source text: Table 1: corresponds to the percentage of alpha-helix structure in the free peptide and in the phospholipid-peptide (DMPC) complexes as determined by infrared spectroscopy (IR) and circular dichroism (CD).
as §1, §2

[4] = Electron microscopy size measurement of the lipid-peptide complexes; assay type: physicochemical; settings: complex with DPPC, from electromicrographs
Description: Phospholipid-peptide complexes, at a protein concentration of 150 μg/ml, were negatively stained with a 20 g/l solution of potassium phosphotungstate (pH 7.4). 7 μl of the samples were applied to Formvar carbon-coated grids and examined in a Zeiss EM 10C transmission electron microscope operating at 60 kV. Particle size was determined by measuring 120 discrete particles for each sample. The mean diameter and the size distribution of the complexes were calculated.

Row | Substance | angle between the peptide and an axis perpendicular to the Ge plane [1] | Composition DPPC/Protein w/w [2] | Vmax (cholesterol efflux) (J774 murine macrophages) | efflux of free cholesterol into the medium (J774 murine macrophages) | percentage of alpha-helix structure, peptide, IR [3] | percentage of alpha-helix structure, DMPC/peptide, IR [3] | Diameter MEAN ± SD [4] | complex size on Superose PG column ([2]; DPPC complexes, cholate dialysis)
1 | EWLEAFYKKVLEKLKELF [M4] | 31 ° | 3/1 | 50 μg cholesterol released from t | 20 µg | 35% | 58% | 150 ± 25 Å | 
2 | EWLKAEYEKVEEKLKELF [M3] | 34 ° | 4/1 | 77 μg cholesterol released from t |  | 43% | 61% | 175 ± 55 Å | much larger
3 | EWLKAEYEKVLEKLKELF [M2] | 25 ° | 2/1 | 48 μg cholesterol released from t |  | 36% | 50% | 173 ± 45 Å | 
4 | EWLKAFYKKVLEKLKELF [M1] | 25 ° | 3/1 | 111 μg cholesterol released from t |  | 29% | 50% | 209 ± 33 Å | 
5 | apo AI: native plasma apo AI purified from human plasma; major apoprotein constituent of HDL |  | 2/1 | 52 μg cholesterol released from t | ~8 µg | 39% | 49% | 128 ± 22 Å | 

From patent US5733879A, “Peptides and proteins, process for their preparation and their use as cholesterol acceptors” (N.V. Innogenetics, S.A., priority 1992, dated 1998)
